Here are results for two proteins from article PMC4959569.

Series [1] can be described thus: Q-PCR normalised to EWS-FLI1 protein level. Conditions: control: mock treated SK-N-MC cells.
A short description of series [2]: Western blot densitometry, antibody 7.3. The conditions noted are these: glycan lost; control: untreated SK-N-MC cells. (In general: A western blot detects proteins with antibodies after separation by electrophoresis.)

B1: EWS-FLI1: DON (protein)
parent chain: MASTDYSTYSQAAAQQGYSAYTAQPTQGYAQTTQAYGQQSYGTYGQPTDVSYTQAQTTATYGQTAYATSYGQPPTGYTTPTAPQAYSQPVQGYGTGAYDTTTATVTTTQASYAAQSAYGTQPAYPAYGQQPAATAPTRPQDGNKPTETSQPQSSTGGYNQPSLGYGQSNYSYPQVPGSYPMQPVTAPPSYPPTSYSSTQPTSYDQSSYSQQNTYGQPSSYGQQSSYGQQSSYGQQPPTSYPPQTGSYSQAPSQYSQQSSSYGQQSSFRQDHPSSMGVYGQESGGFSGPGENRSMSGPDNRGRGRGGFDRGGMSRGGRGGGRGGMGSAGERGGFNKPGGPMDEGPDLDLGPPVDPDEDSDNSAIYVQGLNDSVTLDDLADFFKQCGVVKMNKRTGQPMIHIYLDKETGKPKGDATVSYEDPPTAKAAVEWFDGKDFQGSKLKVSLARKKPPMNSMRGGLPPREGRGMPPPLRGGPGGPGGPGGPMGRMGGRGGDRGGFPPRGPRGSRGNPSGGGNVQHRAGDWQCPNPGCGNQNFAWRTECNQCKAPKPEGFLPPPFPPPGGDRGRGGPGGMRGGRGGLMDRGGPGGMFRGGRGGDRGGFRGGRGMDRGGFGGGRRGGPGGPPGPLMEQMGGRRGGRGGPGKMDKGEHRQERRDRPY
B1: the “other: transcriptional repression of target gene” value in series [1] (glycan lost) is “no change”. The “expression_or_secretion, percent_of_wt” value in series [2] is “decreases”.

B2: EWS-FLI1: STZ (protein)
parent chain: B1 parent chain
On to B2, for which, in series [1] (glycan gained), the “other: transcriptional activation of target gene, fold_change” value is “no change” and the “other: transcriptional repression of target gene” value is given as “no change”.
